Substrate in series [1]: O=P(O)(O)O[C@H]1O[C@H](CO)[C@@H](O)[C@H](O)[C@@H]1O
As to the kind of experiment: purified protein. It is filed as biochemical, Homo sapiens. The settings on record: pH 7.5, 32°C.

Substrate in series [2]: O=P(O)(O)O[C@H]1O[C@H](CO)[C@@H](O)[C@H](O)[C@H]1O
Description: purified protein. Particulars: 27 μM Glc-1,6-P2, MgCl2 5 mM, pH 7.5, 32°C. In kind it is biochemical, Homo sapiens.

B1: PMM2 (phosphomannomutase2) (Homo sapiens) (protein)
chain: AAPGPALCLFDVDGTLTAPRQKITKEMDDFLQKLRQKIKIGVVGGSDFEKVQEQLGNDVVEKYDYVFPENGLVAYKDGKLLCRQNIQSHLGEALIQDLINYCLSYIAKIKLPKKRGTFIEFRNGMLNVSPIGRSCSQEERIEFYELDKKENIRQKFVADLRKEFAGKGLTFSIGGQISFDVFPDGWDKRYCLRHVENDGYKTIYFFGDKTMPGGNDHEIFTDPRTMGYSVTAPEDTRRICELLFS
notes: recombinant, E. coli BL21(DE3), purified as in earlier work; no tag mentioned
As for B1, the Km (usually the concentration of substrate that gives half-maximal velocity) in series [1] (3 μM Man-1,6-P2, MgCl2 5 mM) worked out at 23.7 ± 4.5 µM.

B2: PMM1 (phosphomannomutase1) (Homo sapiens; E219K/M186Q/N218D) (protein)
chain: AVTAQAARRKERVLCLFDVDGTLTPARQKIDPEVAAFLQKLRSRVQIGVVGGSDYCKIAEQLGDGDEVIEKFDYVFAENGTVQYKHGRLLSKQTIQNHLGEELLQDLINFCLSYMALLRLPKKRGTFIEFRNGMLNISPIGRSCTLEERIEFSELDKKEKIREKFVEALKTEFAGKGLRFSRGGQISFDVFPEGWDKRYCLDSLDQDSFDTIHFFGDKTSPGGNDFEIFADPRTVGHSVVSPQDTVQRCREIFFPETAHEA
notes: recombinant, E. coli BL21(DE3), purified as in earlier work (DEAE, butyl Sepharose); dimer; no tag mentioned
In the case of B2, the Km in series [2] was determined as 3.5 ± 1.3 µM; in series [1] (10 μM Man-1,6-P2, MgCl2 5 mM) it was 1.6 ± 0.4 µM.

B3: PMM1 (phosphomannomutase1) (Homo sapiens) (protein)
chain: AVTAQAARRKERVLCLFDVDGTLTPARQKIDPEVAAFLQKLRSRVQIGVVGGSDYCKIAEQLGDGDEVIEKFDYVFAENGTVQYKHGRLLSKQTIQNHLGEELLQDLINFCLSYMALLRLPKKRGTFIEFRNGMLNISPIGRSCTLEERIEFSELDKKEKIREKFVEALKTEFAGKGLRFSRGGMISFDVFPEGWDKRYCLDSLDQDSFDTIHFFGNETSPGGNDFEIFADPRTVGHSVVSPQDTVQRCREIFFPETAHEA
notes: as for B2
As to B3, the Km in series [2] is 7.3 ± 1.7 µM; in series [1] (10 μM Man-1,6-P2, MgCl2 5 mM), 6.5 ± 1.3 µM.
